Five molecules from patent US20260266848A1, “COMPOSITIONS AND METHODS FOR DIAGNOSING AND TREATING DYSTONIA” (Duke University, priority 2023, published 2026) can be followed below.

The subject of one test is DYT-TOR1A MEF EVs. The test is described as follows: Quantitative LC-MS/MS proteomics of EVs from drug-treated DYT-TOR1A MEF cultures (ritonavir, salubrinal). To be noted: EV protein abundance; for RTV Corrective Direction: DYT + RTV (ritonavir) vs DYT, direction compared with DYT/WT; for DYT + RTV/DYT Cohen's d: ritonavir (RTV)-treated DYT vs DYT. The arrangement: key to RTV Corrective Direction / RTV Corrective Direction, Grwd1 / RTV Corrective Direction, Srrm2 / RTV Corrective Direction, Rbm17 / RTV Corrective Direction, Dcaf8 / RTV Corrective Direction, Edil3 / RTV Corrective Direction, Timp3 / RTV Corrective Direction, Heatr3 / RTV Corrective Direction, Brd4 / RTV Corrective Direction, P3h4 / RTV Corrective Direction, Pacsin3 / RTV Corrective Direction, Naa50 / RTV Corrective Direction, Lpar6 / RTV Corrective Direction, Ndrg1 / RTV Corrective Direction, Kntc1 / RTV Corrective Direction, Cdk11b / RTV Corrective Direction, Sumo1 / RTV Corrective Direction, Lsm4 / RTV Corrective Direction, Hmga2 / RTV Corrective Direction, Cstf1 / RTV Corrective Direction, Tes / RTV Corrective Direction, Sbno1 / RTV Corrective Direction, Unc119b / RTV Corrective Direction, Cfdp1 / RTV Corrective Direction, Sec61b: YES = protein abundance effect opposite to DYT/WT. In kind it is cell-based, mouse.

Another test concerns WT MEF EVs. The test is described as follows: Quantitative LC-MS/MS proteomics of EVs from ISRIB-treated WT MEF cultures. In kind it is cell-based, mouse. Also noted: key to ISRIB and DYT Parallel Direction / ISRIB and DYT Parallel Direction, Ctdsp1 / ISRIB and DYT Parallel Direction, Pcdh19 / ISRIB and DYT Parallel Direction, Tspan7 / ISRIB and DYT Parallel Direction, Myo1e / ISRIB and DYT Parallel Direction, Plpp3 / ISRIB and DYT Parallel Direction, Sh3bp4 / ISRIB and DYT Parallel Direction, Dnajc7 / ISRIB and DYT Parallel Direction, Drg1 / ISRIB and DYT Parallel Direction, Maea: YES = protein abundance effect similar to DYT/WT. To be noted: EV protein abundance; for WT + ISRIB/WT Cohen's d: ISRIB-treated WT vs WT; for ISRIB and DYT Parallel Direction: WT + ISRIB vs WT, direction compared with DYT/WT.

B1: Dpp3 (protein, UniProt Q99KK7 2-738, looked up)
Dipeptidyl peptidase 3: ADTQYILPNDIGVSSLDCREAFRLLSPTERLYAHHLSRAAWYGGLAVLLQTSPEAPYIYALLSRLFRAQDPDQLRQHALAEGLTEEEYQAFLVYAAGVYSNMGNYKSFGDTKFVPNLPKDKLGRVILGSKAAQQRPEEVRDLWQTCGDLMFSLEPRLRHLGLGKEGVTTYFSGDCTMEDAKLAQDFLDSQNLSAYNTRLFKVVGQEGKSHYEVRLASVLNTDPALDSELTSKLKRYEFQGNHFQVTRGDYAPILQKVVEHLEKAKAYAANSHQEQMLAQYVESFTQGSIEAHKRGSRFWIQDKGPIVESYIGFIESYRDPFGSRGEFEGFVAMVNKAMSAKFERLVASAEQLLKELPWPLAFEKDKFLTPDFTSLDVLTFAGSGIPAGINIPNYDDLRQTEGFKNVSLGNVLAVAYAAKREKLTFLEEEDKDLYIRWKGPSFDVQVGLHELLGHGSGKLFVQDEKGAFNFDKETVINPETGEQIQSWYRSGETWDSKFSTIASSYEECRAESVGLYLCLNPQVLEIFGFEGADAEDVIYVNWLNMVRAGLLALEFYTPEAANWRQAHMQARFVILRVLLEAGEGLVTVTPTTGSDGRPDARVRLDRSKIRSVGRPALERFLRRLQVLKSTGDVVAGRALYEGYAAVTDAPPECFLTLRDTVLLRKESRKLIVQPNTRLEGSEVQLVEYEASAAGLIRSFCERFPEDGPELEEVLIQLAAADARFWRNQAQEAPPGQA
Take B1: in the test on DYT-TOR1A MEF EVs, the “RTV Corrective Direction” value was “YES” and the “DYT + RTV/DYT Cohen's d” value is 5.13. In the test on WT MEF EVs, the “WT + ISRIB/WT Cohen's d” value was −1.56; the “ISRIB and DYT Parallel Direction” value is recorded as “YES”.

B2: Hnrnpl (protein, UniProt P14866 1-589, looked up)
Heterogeneous nuclear …: MSRRLLPRAEKRRRRLEQRQQPDEQRRRSGAMVKMAAAGGGGGGGRYYGGGSEGGRAPKRLKTDNAGDQHGGGGGGGGGAGAAGGGGGGENYDDPHKTPASPVVHIRGLIDGVVEADLVEALQEFGPISYVVVMPKKRQALVEFEDVLGACNAVNYAADNQIYIAGHPAFVNYSTSQKISRPGDSDDSRSVNSVLLFTILNPIYSITTDVLYTICNPCGPVQRIVIFRKNGVQAMVEFDSVQSAQRAKASLNGADIYSGCCTLKIEYAKPTRLNVFKNDQDTWDYTNPNLSGQGDPGSNPNKRQRQPPLLGDHPAEYGGPHGGYHSHYHDEGYGPPPPHYEGRRMGPPVGGHRRGPSRYGPQYGHPPPPPPPPEYGPHADSPVLMVYGLDQSKMNCDRVFNVFCLYGNVEKVKFMKSKPGAAMVEMADGYAVDRAITHLNNNFMFGQKLNVCVSKQPAIMPGQSYGLEDGSCSYKDFSESRNNRFSTPEQAAKNRIQHPSNVLHFFNAPLEVTEENFFEICDELGVKRPSSVKVFSGKSERSSSGLLEWESKSDALETLGFLNHYQMKNPNGPYPYTLKLCFSTAQHAS
For the molecule B2, in the test with DYT-TOR1A MEF EVs, the “RTV Corrective Direction” value is on record as “YES” and the “DYT + RTV/DYT Cohen's d” value was 6.17. In the test on WT MEF EVs, the “WT + ISRIB/WT Cohen's d” value was −0.32; the “ISRIB and DYT Parallel Direction” value is recorded as “YES”.

B3: Eif4g2 (protein, UniProt Q62448 1-906, looked up)
Eukaryotic translation …: MESAIAEGGASRFSASSGGGGSRGAPQHYPKTAGNSEFLGKTPGQNAQKWIPARSTRRDDNSAANNSANEKERHDAIFRKVRGILNKLTPEKFDKLCLELLNVGVESKLILKGVILLIVDKALEEPKYSSLYAQLCLRLAEDAPNFDGPAAEGQPGQKQSTTFRRLLISKLQDEFENRTRNVDVYDKRENPLLPEEEEQRAIAKIKMLGNIKFIGELGKLDLIHESILHKCIKTLLEKKKRVQLKDMGEDLECLCQIMRTVGPRLDHERAKSLMDQYFARMCSLMLSKELPARIRFLLQDTVELREHHWVPRKAFLDNGPKTINQIRQDAVKDLGVFIPAPMAQGRSDFFLEGPFMPPRMKMDRDPLGGLADMFGQMPGSGIGTGPGVIQDRFSPTMGRHRSNQLFNGHGGHIMPPTQSQFGEMGGKFMKSQGLSQLYHNQSQGLLSQLQGQSKDMPPRFSKKGQLNADEISLRPAQSFLMNKNQVPKLQPQITMIPPSAQPPRTQTPPLGQTPQLGLKTNPPLIQEKPAKTSKKPPPSKEELLKLTEAVVTDYLNSGNANDAVSGVREMRAPKHFLPEMLSKVIILSLDRSDEDKEKASSLISLLKQEGIATSDNFMQAFLNVLEQCPKLEVDIPLVKSYLAQFAARAIISELVSISELAQPLESGTHFPLFLLCLQQLAKLQDREWLTELFQQSKVNMQKMLPEIDQNKDRMLEILEGKGLSFLFPLLKLEKELLKQIKLDPSPQTIYKWIKDNISPKLHVDKGFVNILMTSFLQYISSEVSPPSDETDSSSAPSKEQLEQEKQLLLSFKPVMQKFLHDHVDLQVSALYALQVHCYNSSFPKGMLLRFFVHFYDMEIIEEEAFLAWKEDITQEFPGKGKALFQVNQWLTWLETAEEEESEEEAD
Take B3: in the test with DYT-TOR1A MEF EVs, the “RTV Corrective Direction” value is recorded as “YES” and the “DYT + RTV/DYT Cohen's d” value is recorded as 2.79. Also, in the test with WT MEF EVs, the “WT + ISRIB/WT Cohen's d” value is given as −3.04; the “ISRIB and DYT Parallel Direction” value is reported as “YES”.

B4: Upf1 (protein, UniProt Q9EPU0 1-1124, looked up)
Regulator of nonsense …: MSVEAYGPSSQTLTFLDTEEAELLGADTQGSEFEFTDFTLPSQTQTPPGGPGGAGGPGGAGAGGAAGQLDAQVGPEGILQNGAVDDSVAKTSQLLAELNFEEDEEDTYYTKDLPVHACSYCGIHDPACVVYCNTSKKWFCNGRGNTSGSHIVNHLVRAKCKEVTLHKDGPLGETVLECYNCGCRNVFLLGFIPAKADSVVVLLCRQPCASQSSLKDINWDSSQWQPLIQDRCFLSWLVKIPSEQEQLRARQITAQQINKLEELWKENPSATLEDLEKPGVDEEPQHVLLRYEDAYQYQNIFGPLVKLEADYDKKLKESQTQDNITVRWDLGLNKKRIAFFTLPKTDSGNEDLVIIWLRDMRLMQGDEICLRYKGDLAPLWKGIGHVIKVPDNYGDEIAIELRSSVGAPVEVTHNFQVDFVWKSTSFDRMQSALKTFAVDETSVSGYIYHKLLGHEVEDVVIKCQLPKRFTAQGLPDLNHSQVYAVKTVLQRPLSLIQGPPGTGKTVTSATIVYHLARQGNGPVLVCAPSNIAVDQLTEKIHQTGLKVVRLCAKSREAIDSPVSFLALHNQIRNMDSMPELQKLQQLKDETGELSSADEKRYRALKRTAERELLMNADVICCTCVGAGDPRLAKMQFRSILIDESTQATEPECMVPVVLGAKQLILVGDHCQLGPVVMCKKAAKAGLSQSLFERLVVLGIRPIRLQVQYRMHPALSAFPSNIFYEGSLQNGVTAADRVKKGFDFQWPQPDKPMFFYVTQGQEEIASSGTSYLNRTEAANVEKITTKLLKAGAKPDQIGIITPYEGQRSYLVQYMQFSGSLHTKLYQEVEIASVDAFQGREKDFIILSCVRANEHQGIGFLNDPRRLNVALTRARYGVIIVGNPKALSKQPLWNHLLSYYKEQKALVEGPLNNLRESLMQFSKPRKLVNTVNPGARFMTTAMYDAREAIIPGSVYDRSSQGRPSNMYFQTHDQISMISAGPSHVAAMNIPIPFNLVMPPMPPPGYFGQANGPAAGRGTPKTKTGRGGRQKNRFGLPGPSQTTLPNSQASQDVASQPFSQGALTQGYVSMSQPSQMSQPGLSQPELSQDSYLGDEFKSQIDVALSQDSTYQGERAYQHGGVTGLSQY
For B4, in the test with DYT-TOR1A MEF EVs, the “RTV Corrective Direction” value is listed as “YES” and the “DYT + RTV/DYT Cohen's d” value is on record as 4.24. Also, in the test on WT MEF EVs, the “WT + ISRIB/WT Cohen's d” value was −1.84; the “ISRIB and DYT Parallel Direction” value is listed as “YES”.

B5: Pbdc1 (protein, UniProt Q9D0B6 1-198, looked up)
Protein PBDC1: MDAAGESEEPVSGEALSIAHALSHPPESYGNDPDIEMAWAIRAMQHAEVYYKLISSVDPQFLKLTKVDDQIYSEFREIFETLRVDVLDPEELKSESAKEKWRPFCLKFEGIVEDYNYGTLLRLDCSQGYTEENTIFAPRIQFFAIEIARNREGYNKAVSVSIQDKEGEEGAGNKEEAAEKGADSGGEKEEGANREGEK
Regarding B5, in the test on DYT-TOR1A MEF EVs, the “RTV Corrective Direction” value is given as “YES” and the “DYT + RTV/DYT Cohen's d” value came out at 3.36. For the same molecule, in the test on WT MEF EVs, the “WT + ISRIB/WT Cohen's d” value was −1.06; the “ISRIB and DYT Parallel Direction” value is “YES”.
